From US20260209321A1 (SINGAPORE HEALTH SERVICES PTE, published 2026)

B1: anti-TRPM4 chimeric antibody clone A1 (VH + VL) (antibody, V domains shown)
VH: QVQLQESGPGLVKPSQSLSLTCTVTGYSITSDYAWNWIRQFPGNKLQWMGYLSYSGVTSYNPSLKGRISITRDTSKNQFFLQLSSVTPEDTATYYCARKGTYYRYEGSYWYFDVWGAGTTVTVSS
VL: DIQMNQSPSSLSASLGDTITITCHANQNIDVWLSWYQQKPGNVPKLLIYKTSNLHTGVPSRFSGSGSGTDFTLTISSLQPEDIATYYCQQGQSYPLTFGGGTKLEIK
notes: also called VH + VL (A1)
B2: humanized anti-TRPM4 antibody clone A3 (VH1 + VL2) (antibody, V domains shown)
VH: QVQLQESGPGLVKPSQTLSLTCTVSGYSITSDYAWNWIRQHPGKGLEWIGYLSYSGVTSYNPSLKGRVTISVDTSKNQFSLKLSSVTAADTAVYYCARKGTYYRYEGSYWYFDVWGQGTTVTVSS
VL: DIQMTQSPSSLSASVGDRVTITCHANQNIDVWLSWYQQKPGKAPKLLIYKTSNLHTGVPSRFSGSGSGTDFTLTISSLQPEDIATYYCQQGQSYPLTFGGGTKLEIKR
notes: Full-length IgG, IgG1 heavy chain; also called VH1 + VL2 (A3)
B3: humanized anti-TRPM4 antibody VH4 + VL2 (antibody, V domains shown)
VH: QVQLQESGPGLVKPSQTLSLTCTVSGYSITSDYAWNWIRQHPGKGLQWMGYLSYSGVTSYNPSLKGRITISRDTSKNQFFLKLSSVTAADTAVYYCARKGTYYRYEGSYWYFDVWGQGTTVTVSS
VL: DIQMTQSPSSLSASVGDRVTITCHANQNIDVWLSWYQQKPGKAPKLLIYKTSNLHTGVPSRFSGSGSGTDFTLTISSLQPEDIATYYCQQGQSYPLTFGGGTKLEIKR
notes: Full-length IgG
B4: humanized anti-TRPM4 antibody VH3 + VL2 (antibody, V domains shown)
VH: QVQLQESGPGLVKPSQTLSLTCTVSGYSITSDYAWNWIRQHPGKGLQWMGYLSYSGVTSYNPSLKGRITISRDTSKNQFSLKLSSVTAADTAVYYCARKGTYYRYEGSYWYFDVWGQGTTVTVSS
VL: DIQMTQSPSSLSASVGDRVTITCHANQNIDVWLSWYQQKPGKAPKLLIYKTSNLHTGVPSRFSGSGSGTDFTLTISSLQPEDIATYYCQQGQSYPLTFGGGTKLEIKR
notes: Full-length IgG
B5: humanized anti-TRPM4 antibody VH4 + VL4 (antibody, V domains shown)
VH: QVQLQESGPGLVKPSQTLSLTCTVSGYSITSDYAWNWIRQHPGKGLQWMGYLSYSGVTSYNPSLKGRITISRDTSKNQFFLKLSSVTAADTAVYYCARKGTYYRYEGSYWYFDVWGQGTTVTVSS
VL: DIQMTQSPSSLSASVGDRVTITCHANQNIDVWLSWYQQKPGNAPKLLIYKTSNLHTGVPSRFSGSGSGTDFTLTISSLQPEDIATYYCQQGQSYPLTFGGGTKLEIKR
notes: Full-length IgG
B6: humanized anti-TRPM4 antibody VH3 + VL3 (antibody, V domains shown)
VH: QVQLQESGPGLVKPSQTLSLTCTVSGYSITSDYAWNWIRQHPGKGLQWMGYLSYSGVTSYNPSLKGRITISRDTSKNQFSLKLSSVTAADTAVYYCARKGTYYRYEGSYWYFDVWGQGTTVTVSS
VL: DIQMTQSPSSLSASVGDRVTITCHANQNIDVWLSWYQQKPGNAPKLLIYKTSNLHTGVPSRFSGSGSGTDFTFTISSLQPEDIATYYCQQGQSYPLTFGGGTKLEIKR
notes: Full-length IgG
B7: humanized anti-TRPM4 antibody VH4 + VL3 (antibody, V domains shown)
VH: QVQLQESGPGLVKPSQTLSLTCTVSGYSITSDYAWNWIRQHPGKGLQWMGYLSYSGVTSYNPSLKGRITISRDTSKNQFFLKLSSVTAADTAVYYCARKGTYYRYEGSYWYFDVWGQGTTVTVSS
VL: DIQMTQSPSSLSASVGDRVTITCHANQNIDVWLSWYQQKPGNAPKLLIYKTSNLHTGVPSRFSGSGSGTDFTFTISSLQPEDIATYYCQQGQSYPLTFGGGTKLEIKR
notes: Full-length IgG
B8: humanized anti-TRPM4 antibody VH2 + VL4 (antibody, V domains shown)
VH: QVQLQESGPGLVKPSQTLSLTCTVSGYSITSDYAWNWIRQHPGKGLEWMGYLSYSGVTSYNPSLKGRVTISRDTSKNQFSLKLSSVTAADTAVYYCARKGTYYRYEGSYWYFDVWGQGTTVTVSS
VL: DIQMTQSPSSLSASVGDRVTITCHANQNIDVWLSWYQQKPGNAPKLLIYKTSNLHTGVPSRFSGSGSGTDFTLTISSLQPEDIATYYCQQGQSYPLTFGGGTKLEIKR
notes: Full-length IgG
B9: humanized anti-TRPM4 antibody VH2 + VL3 (antibody, V domains shown)
VH: QVQLQESGPGLVKPSQTLSLTCTVSGYSITSDYAWNWIRQHPGKGLEWMGYLSYSGVTSYNPSLKGRVTISRDTSKNQFSLKLSSVTAADTAVYYCARKGTYYRYEGSYWYFDVWGQGTTVTVSS
VL: DIQMTQSPSSLSASVGDRVTITCHANQNIDVWLSWYQQKPGNAPKLLIYKTSNLHTGVPSRFSGSGSGTDFTFTISSLQPEDIATYYCQQGQSYPLTFGGGTKLEIKR
notes: Full-length IgG
B10: humanized anti-TRPM4 antibody VH3 + VL4 (antibody, V domains shown)
VH: QVQLQESGPGLVKPSQTLSLTCTVSGYSITSDYAWNWIRQHPGKGLQWMGYLSYSGVTSYNPSLKGRITISRDTSKNQFSLKLSSVTAADTAVYYCARKGTYYRYEGSYWYFDVWGQGTTVTVSS
VL: DIQMTQSPSSLSASVGDRVTITCHANQNIDVWLSWYQQKPGNAPKLLIYKTSNLHTGVPSRFSGSGSGTDFTLTISSLQPEDIATYYCQQGQSYPLTFGGGTKLEIKR
notes: Full-length IgG
B11: humanized anti-TRPM4 antibody VH4 + VL1 (antibody, V domains shown)
VH: QVQLQESGPGLVKPSQTLSLTCTVSGYSITSDYAWNWIRQHPGKGLQWMGYLSYSGVTSYNPSLKGRITISRDTSKNQFFLKLSSVTAADTAVYYCARKGTYYRYEGSYWYFDVWGQGTTVTVSS
VL: DIQMTQSPSSLSASVGDRVTITCHANQNIDVWLSWYQQKPGKAPKLLIYKTSNLHTGVPSRFSGSGSGTDFTFTISSLQPEDIATYYCQQGQSYPLTFGGGTKLEIKR
notes: Full-length IgG
B12: humanized anti-TRPM4 antibody VH3 + VL1 (antibody, V domains shown)
VH: QVQLQESGPGLVKPSQTLSLTCTVSGYSITSDYAWNWIRQHPGKGLQWMGYLSYSGVTSYNPSLKGRITISRDTSKNQFSLKLSSVTAADTAVYYCARKGTYYRYEGSYWYFDVWGQGTTVTVSS
VL: DIQMTQSPSSLSASVGDRVTITCHANQNIDVWLSWYQQKPGKAPKLLIYKTSNLHTGVPSRFSGSGSGTDFTFTISSLQPEDIATYYCQQGQSYPLTFGGGTKLEIKR
notes: Full-length IgG
B13: humanized anti-TRPM4 antibody clone A6 (VH2 + VL1) (antibody, V domains shown)
VH: QVQLQESGPGLVKPSQTLSLTCTVSGYSITSDYAWNWIRQHPGKGLEWMGYLSYSGVTSYNPSLKGRVTISRDTSKNQFSLKLSSVTAADTAVYYCARKGTYYRYEGSYWYFDVWGQGTTVTVSS
VL: DIQMTQSPSSLSASVGDRVTITCHANQNIDVWLSWYQQKPGKAPKLLIYKTSNLHTGVPSRFSGSGSGTDFTFTISSLQPEDIATYYCQQGQSYPLTFGGGTKLEIKR
notes: Full-length IgG, IgG1 heavy chain; also called VH2 + VL1 (A6)
B14: humanized anti-TRPM4 antibody clone A4 (VH1 + VL3) (antibody, V domains shown)
VH: QVQLQESGPGLVKPSQTLSLTCTVSGYSITSDYAWNWIRQHPGKGLEWIGYLSYSGVTSYNPSLKGRVTISVDTSKNQFSLKLSSVTAADTAVYYCARKGTYYRYEGSYWYFDVWGQGTTVTVSS
VL: DIQMTQSPSSLSASVGDRVTITCHANQNIDVWLSWYQQKPGNAPKLLIYKTSNLHTGVPSRFSGSGSGTDFTFTISSLQPEDIATYYCQQGQSYPLTFGGGTKLEIKR
notes: Full-length IgG, IgG1 heavy chain; also called VH1 + VL3 (A4)
B15: humanized anti-TRPM4 antibody clone A7 (VH2 + VL2) (antibody, V domains shown)
VH: QVQLQESGPGLVKPSQTLSLTCTVSGYSITSDYAWNWIRQHPGKGLEWMGYLSYSGVTSYNPSLKGRVTISRDTSKNQFSLKLSSVTAADTAVYYCARKGTYYRYEGSYWYFDVWGQGTTVTVSS
VL: DIQMTQSPSSLSASVGDRVTITCHANQNIDVWLSWYQQKPGKAPKLLIYKTSNLHTGVPSRFSGSGSGTDFTLTISSLQPEDIATYYCQQGQSYPLTFGGGTKLEIKR
notes: Full-length IgG, IgG1 heavy chain; also called VH2 + VL2 (A7)
B16: humanized anti-TRPM4 antibody clone A5 (VH1 + VL4) (antibody, V domains shown)
VH: QVQLQESGPGLVKPSQTLSLTCTVSGYSITSDYAWNWIRQHPGKGLEWIGYLSYSGVTSYNPSLKGRVTISVDTSKNQFSLKLSSVTAADTAVYYCARKGTYYRYEGSYWYFDVWGQGTTVTVSS
VL: DIQMTQSPSSLSASVGDRVTITCHANQNIDVWLSWYQQKPGNAPKLLIYKTSNLHTGVPSRFSGSGSGTDFTLTISSLQPEDIATYYCQQGQSYPLTFGGGTKLEIKR
notes: Full-length IgG, IgG1 heavy chain; also called VH1 + VL4 (A5)

How the values were obtained:
Peptide-biotin [1] = target: T1, Peptide-biotin; experiment: SPR Biacore 8K, purified IgG Fc-captured, Peptide-biotin analyte, 1:1 fit
T1 construct: also called antigen
Protocol: The affinity of purified antibody binding to Peptide-biotin was individually determined using a Surface Plasmon Resonance (SPR) biosensor, Biacore 8K (GE Healthcare). Antibodies were captured on the sensor chip through Fc capture method. Peptide-biotin was used as the analyte. The data of dissociation (kd) and association (ka) rate constants were obtained using Biacore 8K evaluation software. The equilibrium dissociation constants (KD) were calculated from the ratio of kd over ka.

[2] = target: T2, human TRPM4 expressed in transfected HEK 293 cells (human, UniProt Q8TD43 1-1214); experiment: immunofluorescent staining of HEK 293 cells transfected with human TRPM4; colocalization with WGA (surface TRPM4)
T2 construct: whole, on cells; also called transient receptor potential melastatin 4

Peptide-biotin [3] = target: T1, Peptide-biotin; experiment: SPR Biacore 8K affinity ranking; antibody Fc-captured, Peptide-biotin analyte, 1:1 fit
Protocol: For affinity ranking, antibodies were captured on the sensor chip through Fc capture method. Peptide-biotin was used as the analyte. The surface was regenerated before the injection of another antibody. The process was repeated until all antibodies are analyzed. The off-rates of antibodies were obtained from fitting the experimental data locally to 1:1 interaction model using the Biacore 8K evaluation software. The antibodies were ranked by their dissociation rate constants (off-rates, kd). Based on the ranking result, the top 3 clones were selected.
Humanized antibodies were generated by replacing the framework regions (FRs) from mouse M4M antibody with counterparts from human, while maintaining the antibody's complementarity-determining regions (CDRs) binding regions. The antibody binding affinity of the chimeric and humanized antibodies was assessed by surface plasmon resonance (SPR) as shown in Table 1. Antibody clone A1 is the chimeric antibody and antibody clones A2-7 are humanized antibodies. Based on the results obtained from SPR, humanized clone A2 has the strongest SPR signal. For affinity ranking, antibodies were captured on the sensor chip through Fc capture method. Peptide-biotin was used as the analyte. The surface was regenerated before the injection of another antibody. The process was repeated until all antibodies are analyzed. The off-rates of antibodies were obtained from fitting the experimental data locally to 1:1 interaction model using the Biacore 8K evaluation software. The antibodies were ranked by their dissociation rate constants (off-rates, kd). Based on the ranking result, the top humanized clones were selected. […] Bolded and underlined amino acids correspond to the back mutation sites in the framework regions.

T2 sequence (Q8TD43 whole entry): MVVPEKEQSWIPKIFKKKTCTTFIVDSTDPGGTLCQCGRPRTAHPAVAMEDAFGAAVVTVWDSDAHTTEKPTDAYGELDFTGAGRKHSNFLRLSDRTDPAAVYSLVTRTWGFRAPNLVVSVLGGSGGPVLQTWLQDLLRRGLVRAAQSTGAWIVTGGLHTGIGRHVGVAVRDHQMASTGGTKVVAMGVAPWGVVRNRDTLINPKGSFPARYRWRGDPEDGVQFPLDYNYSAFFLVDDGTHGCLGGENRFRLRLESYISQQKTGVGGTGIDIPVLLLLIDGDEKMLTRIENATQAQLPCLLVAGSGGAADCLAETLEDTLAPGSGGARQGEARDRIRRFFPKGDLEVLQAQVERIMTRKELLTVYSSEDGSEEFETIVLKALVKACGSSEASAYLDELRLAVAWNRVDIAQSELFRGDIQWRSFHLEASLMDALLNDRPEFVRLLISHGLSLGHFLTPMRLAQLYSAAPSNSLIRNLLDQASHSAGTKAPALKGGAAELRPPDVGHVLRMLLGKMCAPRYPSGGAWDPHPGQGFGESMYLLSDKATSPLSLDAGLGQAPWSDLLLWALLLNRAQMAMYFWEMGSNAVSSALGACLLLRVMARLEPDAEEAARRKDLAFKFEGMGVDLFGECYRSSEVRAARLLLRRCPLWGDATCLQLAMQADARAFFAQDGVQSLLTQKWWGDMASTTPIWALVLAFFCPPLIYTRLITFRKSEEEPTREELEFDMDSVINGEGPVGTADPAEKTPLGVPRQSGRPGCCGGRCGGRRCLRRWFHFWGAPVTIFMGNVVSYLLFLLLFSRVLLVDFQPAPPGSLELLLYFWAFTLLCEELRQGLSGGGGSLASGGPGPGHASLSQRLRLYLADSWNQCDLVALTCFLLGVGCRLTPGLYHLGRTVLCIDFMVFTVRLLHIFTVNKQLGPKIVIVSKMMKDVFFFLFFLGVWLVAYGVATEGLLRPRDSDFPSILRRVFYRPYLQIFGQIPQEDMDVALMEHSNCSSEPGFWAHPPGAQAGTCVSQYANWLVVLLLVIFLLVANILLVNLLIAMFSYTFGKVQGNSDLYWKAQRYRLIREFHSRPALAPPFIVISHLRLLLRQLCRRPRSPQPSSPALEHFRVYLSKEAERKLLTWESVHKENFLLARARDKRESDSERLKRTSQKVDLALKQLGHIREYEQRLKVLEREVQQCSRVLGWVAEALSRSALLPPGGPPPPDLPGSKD

| Binder | Kd (Peptide-biotin [1]) [nM] | koff (Peptide-biotin [1]) [s⁻¹] | kon (Peptide-biotin [1]) [M⁻¹ s⁻¹] | binding result [2] | Kd (Peptide-biotin [3]) [nM] | koff (Peptide-biotin [3]) [s⁻¹] | kon (Peptide-biotin [3]) [M⁻¹ s⁻¹] |
| --- | --- | --- | --- | --- | --- | --- | --- |
| B1 | 1.74 | 0.000543 | 312000 | binds | 4.61 | 0.0015 | 325000 |
| B2 |  |  |  | binds | 9.81 | 0.00321 | 327000 |
| B3 |  |  |  |  | 4.37 | 0.00132 | 303000 |
| B4 |  |  |  |  | 4.53 | 0.00198 | 438000 |
| B5 |  |  |  |  | 4.43 | 0.00201 | 454000 |
| B6 |  |  |  |  | 4.4 | 0.0018 | 409000 |
| B7 |  |  |  |  | 4.32 | 0.00143 | 332000 |
| B8 |  |  |  |  | 8.62 | 0.00185 | 215000 |
| B9 |  |  |  |  | 10.8 | 0.00219 | 203000 |
| B10 |  |  |  |  | 2.22 | 0.00135 | 608000 |
| B11 |  |  |  |  | 4.47 | 0.00136 | 305000 |
| B12 |  |  |  |  | 4.36 | 0.00149 | 342000 |
| B13 | 4.02 | 0.000662 | 165000 | binds | 10.6 | 0.00195 | 184000 |
| B14 | 3.18 | 0.00062 | 195000 | binds | 7 | 0.00177 | 252000 |
| B15 |  |  |  | binds | 11.5 | 0.00295 | 256000 |
| B16 |  |  |  | binds | 9.96 | 0.00217 | 217000 |
